Reference: IntAct's records for PubMed 25910212

B1: EF-hand domain-containing protein 1 (Homo sapiens), Q5JVL4 (parent)
chain: MVSNPVHGLPFLPGTSFKDSTKTAFHRSQTLSYRNGYAIVRRPTVGIGGDRLQFNQLSQAELDELASKAPVLTYGQPKQAPPADFIPAHVAFDKKVLKFDAYFQEDVPMSTEEQYRIRQVNIYYYLEDDSMSVIEPVVENSGILQGKLIKRQRLAKNDRGDHYHWKDLNRGINITIYGKTFRVVDCDQFTQVFLESQGIELNPPEKMALDPYTELRKQPLRKYVTPSDFDQLKQFLTFDKQVLRFYAIWDDTDSMYGECRTYIIHYYLMDDTVEIREVHERNDGRDPFPLLMNRQRVPKVLVENAKNFPQCVLEISDQEVLEWYTAKDFIVGKSLTILGRTFFIYDCDPFTRRYYKEKFGITDLPRIDVSKREPPPVKQELPPYNGFGLVEDSAQNCFALIPKAPKKDVIKMLVNDNKVLRYLAVLESPIPEDKDRRFVFSYFLATDMISIFEPPVRNSGIIGGKYLGRTKVVKPYSTVDNPVYYGPSDFFIGAVIEVFGHRFIILDTDEYVLKYMESNAAQYSPEALASIQNHVRKREAPAPEAESKQTEKDPGVQELEALIDTIQKQLKDHSCKDNIREAFQIYDKEASGYVDRDMFFKICESLNVPVDDSLVKELIRMCSHGEGKINYYNFVRAFSN
partner: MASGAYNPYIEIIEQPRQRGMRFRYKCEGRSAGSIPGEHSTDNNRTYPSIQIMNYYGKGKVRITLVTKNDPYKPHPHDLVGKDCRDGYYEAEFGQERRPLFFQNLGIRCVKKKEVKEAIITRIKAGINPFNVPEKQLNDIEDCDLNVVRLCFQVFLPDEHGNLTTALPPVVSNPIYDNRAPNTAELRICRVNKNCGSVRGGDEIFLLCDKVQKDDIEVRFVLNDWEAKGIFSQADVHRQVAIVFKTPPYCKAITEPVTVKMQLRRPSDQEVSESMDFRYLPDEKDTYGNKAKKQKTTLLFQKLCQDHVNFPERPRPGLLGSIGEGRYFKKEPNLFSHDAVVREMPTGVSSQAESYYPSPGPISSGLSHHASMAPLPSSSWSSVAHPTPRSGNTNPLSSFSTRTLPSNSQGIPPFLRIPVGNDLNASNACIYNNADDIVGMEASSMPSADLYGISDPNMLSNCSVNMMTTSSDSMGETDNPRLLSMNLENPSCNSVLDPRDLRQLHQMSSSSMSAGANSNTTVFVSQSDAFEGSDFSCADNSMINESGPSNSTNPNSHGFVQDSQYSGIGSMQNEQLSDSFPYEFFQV
B2: Mothers against decapentaplegic homolog 3 (Homo sapiens), P84022 (parent)
chain: MSSILPFTPPIVKRLLGWKKGEQNGQEEKWCEKAVKSLVKKLKKTGQLDELEKAITTQNVNTKCITIPRSLDGRLQVSHRKGLPHVIYCRLWRWPDLHSHHELRAMELCEFAFNMKKDEVCVNPYHYQRVETPVLPPVLVPRHTEIPAEFPPLDDYSHSIPENTNFPAGIEPQSNIPETPPPGYLSEDGETSDHQMNHSMDAGSPNLSPNPMSPAHNNLDLQPVTYCEPAFWCSISYYELNQRVGETFHASQPSMTVDGFTDPSNSERFCLGLLSNVNRNAAVELTRRHIGRGVRLYYIGGEVFAECLSDSAIFVQSPNCNQRYGWHPATVCKIPPGCNLKIFNNQEFAALLAQSVNQGFEAVYQLTRMCTIRMSFVKGWGAEYRRQTVTSTPCWIELHLNGPLQWLDKVLTQMGSPSIRCSSVS
partner: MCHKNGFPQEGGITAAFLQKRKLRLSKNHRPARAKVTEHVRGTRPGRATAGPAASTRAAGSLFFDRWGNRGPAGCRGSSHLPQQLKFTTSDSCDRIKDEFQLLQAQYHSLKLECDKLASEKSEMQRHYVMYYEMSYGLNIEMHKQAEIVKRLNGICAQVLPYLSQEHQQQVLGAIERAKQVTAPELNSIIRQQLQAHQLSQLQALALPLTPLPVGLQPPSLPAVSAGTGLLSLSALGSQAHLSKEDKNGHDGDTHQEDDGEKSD
B3: SH2 domain-containing protein 1A (Homo sapiens), O60880 (parent)
chain: MDAVAVYHGKISRETGEKLLLATGLDGSYLLRDSESVPGVYCLCVLYHGYIYTYRVSQTETGSWSAETAPGVHKRYFRKIKNLISAFQKPDQGIVIPLQYPVEKKSSARSTQGTTGIREDPDVCLKAP
partner: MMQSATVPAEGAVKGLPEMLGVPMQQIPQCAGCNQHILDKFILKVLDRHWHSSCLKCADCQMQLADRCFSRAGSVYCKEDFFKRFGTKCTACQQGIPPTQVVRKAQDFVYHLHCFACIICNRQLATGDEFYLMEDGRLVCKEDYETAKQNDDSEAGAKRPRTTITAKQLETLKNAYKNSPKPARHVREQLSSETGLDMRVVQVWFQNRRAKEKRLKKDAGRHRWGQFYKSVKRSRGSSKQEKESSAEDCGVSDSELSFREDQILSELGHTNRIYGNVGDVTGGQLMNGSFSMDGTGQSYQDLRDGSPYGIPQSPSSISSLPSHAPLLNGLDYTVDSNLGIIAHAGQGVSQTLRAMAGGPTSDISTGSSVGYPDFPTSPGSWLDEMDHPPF
B4: Chorion-specific transcription factor GCMb (Homo sapiens), O75603 (parent)
chain: MPAAAVQEAVGVCSYGMQLSWDINDPQMPQELALFDQFREWPDGYVRFIYSSDEKKAQRHLSGWAMRNTNNHNGHILKKSCLGVVVCTQACTLPDGSRLQLRPAICDKARLKQQKKACPNCHSALELIPCRGHSGYPVTNFWRLDGNAIFFQAKGVHDHPRPESKSETEARRSAIKRQMASFYQPQKKRIRESEAEENQDSSGHFSNIPPLENPEDFDIVTETSFPIPGQPCPSFPKSDVYKATCDLATFQGDKMPPFQKYSSPRIYLPRPPCSYELANPGYTNSSPYPTLYKDSTSIPNDTDWVHLNTLQCNVNSYSSYERSFDFTNKQHGWKPALGKPSLVERTNHGQFQAMATRPYYNPELPCRYLTTPPPGAPALQTVITTTTKVSYQAYQPPAMKYSDSVREVKSLSSCNYAPEDTGMSVYPEPWGPPVTVTRAASPSGPPPMKIAGDCRAIRPTVAIPHEPVSSRTDEAETWDVCLSGLGSAVSYSDRVGPFFTYNNEDF
partner: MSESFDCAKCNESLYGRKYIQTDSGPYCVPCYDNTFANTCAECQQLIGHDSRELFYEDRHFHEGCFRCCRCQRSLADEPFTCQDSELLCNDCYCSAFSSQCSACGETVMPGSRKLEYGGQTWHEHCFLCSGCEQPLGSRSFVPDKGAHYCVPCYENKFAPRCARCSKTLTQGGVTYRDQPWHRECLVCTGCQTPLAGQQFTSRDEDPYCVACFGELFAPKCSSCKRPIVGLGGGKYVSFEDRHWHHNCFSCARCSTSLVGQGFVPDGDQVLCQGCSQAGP
B5: Emerin (Homo sapiens), P50402 (parent)
chain: MDNYADLSDTELTTLLRRYNIPHGPVVGSTRRLYEKKIFEYETQRRRLSPPSSSAASSYSFSDLNSTRGDADMYDLPKKEDALLYQSKGYNDDYYEESYFTTRTYGEPESAGPSRAVRQSVTSFPDADAFHHQVHDDDLLSSSEEECKDRERPMYGRDSAYQSITHYRPVSASRSSLDLSYYPTSSSTSFMSSSSSSSSWLTRRAIRPENRAPGAGLGQDRQVPLWGQLLLFLVFVIVLFFIYHFMQAEEGNPF
partner: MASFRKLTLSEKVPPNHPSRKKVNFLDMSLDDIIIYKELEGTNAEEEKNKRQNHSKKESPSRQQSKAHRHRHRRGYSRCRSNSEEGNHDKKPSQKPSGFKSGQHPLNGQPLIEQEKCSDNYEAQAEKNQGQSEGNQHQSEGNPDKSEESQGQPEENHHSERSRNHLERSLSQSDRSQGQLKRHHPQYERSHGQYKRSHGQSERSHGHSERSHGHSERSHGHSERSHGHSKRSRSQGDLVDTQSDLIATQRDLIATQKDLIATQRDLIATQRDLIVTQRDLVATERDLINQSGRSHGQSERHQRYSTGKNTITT
B6: Krev interaction trapped protein 1 (Homo sapiens), O00522 (parent)
chain: MGNPENIEDAYVAVIRPKNTASLNSREYRAKSYEILLHEVPIEGQKKKRKKVLLETKLQGNSEITQGILDYVVETTKPISPANQGIRGKRVVLMKKFPLDGEKMGREASLFIVPSVVKDNTKYTYTPGCPIFYCLQDIMRVCSESSTHFATLTARMLIALDKWLDERHAQSHFIPALFRPSPLERIKTNVINPAYATESGQTENSLHMGYSALEIKSKMLALEKADTCIYNPLFGSDLQYTNRVDKVVINPYFGLGAPDYSKIQIPKQEKWQRSMSSVTEDKERQWVDDFPLHRSACEGDSELLSRLLSERFSVNQLDSDHWAPIHYACWYGKVEATRILLEKGKCNPNLLNGQLSSPLHFAAGGGHAEIVQILLNHPETDRHITDQQGRSPLNICEENKQNNWEEAAKLLKEAINKPYEKVRIYRMDGSYRSVELKHGNNTTVQQIMEGMRLSQETQQYFTIWICSENLSLQLKPYHKPLQHVRDWPEILAELTNLDPQRETPQLFLRRDVRLPLEVEKQIEDPLAILILFDEARYNLLKGFYTAPDAKLITLASLLLQIVYGNYESKKHKQGFLNEENLKSIVPVTKLKSKAPHWTNRILHEYKNLSTSEGVSKEMHHLQRMFLQNCWEIPTYGAAFFTGQIFTKASPSNHKVIPVYVGVNIKGLHLLNMETKALLISLKYGCFMWQLGDTDTCFQIHSMENKMSFIVHTKQAGLVVKLLMKLNGQLMPTERNS
partner: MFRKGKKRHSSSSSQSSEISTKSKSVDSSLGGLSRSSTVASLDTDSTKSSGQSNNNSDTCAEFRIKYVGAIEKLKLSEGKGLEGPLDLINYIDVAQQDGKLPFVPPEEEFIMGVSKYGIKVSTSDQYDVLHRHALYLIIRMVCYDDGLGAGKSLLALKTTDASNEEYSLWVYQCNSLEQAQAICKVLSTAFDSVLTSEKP
B7: NADH dehydrogenase [ubiquinone] 1 alpha subcomplex assembly factor 4 (Homo sapiens), Q9P032 (parent)
chain: MGALVIRGIRNFNLENRAEREISKMKPSVAPRHPSTNSLLREQISLYPEVKGEIARKDEKLLSFLKDVYVDSKDPVSSLQVKAAETCQEPKEFRLPKDHHFDMINIKSIPKGKISIVEALTLLNNHKLFPETWTAEKIMQEYQLEQKDVNSLLKYFVTFEVEIFPPEDKKAIRSK
B8: Keratin, type II cytoskeletal 6A (Homo sapiens), P02538 (parent)
chain: MASTSTTIRSHSSSRRGFSANSARLPGVSRSGFSSVSVSRSRGSGGLGGACGGAGFGSRSLYGLGGSKRISIGGGSCAISGGYGSRAGGSYGFGGAGSGFGFGGGAGIGFGLGGGAGLAGGFGGPGFPVCPPGGIQEVTVNQSLLTPLNLQIDPTIQRVRAEEREQIKTLNNKFASFIDKVRFLEQQNKVLETKWTLLQEQGTKTVRQNLEPLFEQYINNLRRQLDSIVGERGRLDSELRGMQDLVEDFKNKYEDEINKRTAAENEFVTLKKDVDAAYMNKVELQAKADTLTDEINFLRALYDAELSQMQTHISDTSVVLSMDNNRNLDLDSIIAEVKAQYEEIAQRSRAEAESWYQTKYEELQVTAGRHGDDLRNTKQEIAEINRMIQRLRSEIDHVKKQCANLQAAIADAEQRGEMALKDAKNKLEGLEDALQKAKQDLARLLKEYQELMNVKLALDVEIATYRKLLEGEECRLNGEGVGQVNISVVQSTVSSGYGGASGVGSGLGLGGGSSYSYGSGLGVGGGFSSSSGRAIGGGLSSVGGGSSTIKYTTTSSSSRKSYKH
partner: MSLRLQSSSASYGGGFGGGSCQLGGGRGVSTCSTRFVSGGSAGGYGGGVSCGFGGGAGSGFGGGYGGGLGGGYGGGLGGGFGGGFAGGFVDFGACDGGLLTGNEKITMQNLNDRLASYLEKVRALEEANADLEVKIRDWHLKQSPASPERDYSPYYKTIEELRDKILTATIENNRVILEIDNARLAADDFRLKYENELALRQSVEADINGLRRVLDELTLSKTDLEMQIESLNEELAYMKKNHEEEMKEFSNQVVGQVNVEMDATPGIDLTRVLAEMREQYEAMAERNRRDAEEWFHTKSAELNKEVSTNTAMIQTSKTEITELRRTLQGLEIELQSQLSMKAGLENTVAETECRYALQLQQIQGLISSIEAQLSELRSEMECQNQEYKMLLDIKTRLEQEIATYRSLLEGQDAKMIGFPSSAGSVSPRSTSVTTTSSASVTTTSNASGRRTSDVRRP

Variants of: B1
Details: with REL
With T508R the “effect of a mutation on the interaction” value was “disrupting interaction strength”.
For P77T, the “effect of a mutation on the interaction” value was “disrupting interaction strength”.
With M448T the “effect of a mutation on the interaction” value was “with no effect”.

Variants of: B2
Details: with TLE5, Q08117-2
In the case of I170V, the “effect of a mutation on the interaction” value is reported as “with no effect”.
For N197I, the “effect of a mutation on the interaction” value was “with no effect”.

Variants of: B3
Details: with lhx4_human LHX4, Q969G2
With R32T the “effect of a mutation on the interaction” value was “with no effect”.
For P101L, the “effect of a mutation on the interaction” value was “with no effect”.
G93D was tested, and the “effect of a mutation on the interaction” value was “with no effect”.

Variants of: B4
Details: with fhl3_human FHL3, Q13643
With R47L the “effect of a mutation on the interaction” value was “disrupting interaction strength”.
For G203S, the “effect of a mutation on the interaction” value was “with no effect”.
G63S was tested, and the “effect of a mutation on the interaction” value was “with no effect”.

Variants of: B5
Details: with luzp4_human LUZP4, Q9P127
In the case of D72V, the “effect of a mutation on the interaction” value is reported as “with no effect”.
P183H was tested, and the “effect of a mutation on the interaction” value was “with no effect”.
In the case of P183T, the “effect of a mutation on the interaction” value is reported as “with no effect”.
In the case of S54F, the “effect of a mutation on the interaction” value is reported as “with no effect”.

Variants of: B6
Details: with itbp1_human ITGB1BP1, O14713
For D137G, the “effect of a mutation on the interaction” value was “with no effect”.

Variants of: B7
Details: with NDUFAF3, Q9BU61-2
Sequence of NDUFAF3, Q9BU61-2 (Q9BU61 58-184): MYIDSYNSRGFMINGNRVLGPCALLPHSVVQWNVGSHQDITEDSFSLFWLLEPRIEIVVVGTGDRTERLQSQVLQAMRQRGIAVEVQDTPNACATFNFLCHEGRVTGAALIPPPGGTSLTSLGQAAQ
With L65P the “effect of a mutation on the interaction” value was “with no effect”.

Variants of: B8
Details: with KRT13, P13646
For F249L, the “effect of a mutation on the interaction” value was “with no effect”.
For T552S, the “effect of a mutation on the interaction” value was “with no effect”.
In the case of F174V, the “effect of a mutation on the interaction” value is reported as “with no effect”.
